Where two headings read alike, the source gives them in different places.
What was measured:
Test in all cases: cell-based or functional assay
recombinant human APRIL [1] = target: T1, recombinant human APRIL (human, UniProt O75888 105-250, limits assumed)
T1 sequence (looked up): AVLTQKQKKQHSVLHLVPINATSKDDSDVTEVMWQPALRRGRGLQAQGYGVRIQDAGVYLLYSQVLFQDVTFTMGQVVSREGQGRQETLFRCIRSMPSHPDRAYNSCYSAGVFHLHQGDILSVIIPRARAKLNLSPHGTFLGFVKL

recombinant human BAFF [2] = target: T2, recombinant human BAFF (human, UniProt Q9Y275 134-285)
recombinant human APRIL [3] = target: T1, recombinant human APRIL; remark: listed apart in the source
recombinant human BAFF [4] = target: T2, recombinant human BAFF; remark: listed apart in the source
recombinant human APRIL [5] = target: T1, recombinant human APRIL; remark: listed apart in the source
recombinant human BAFF [6] = target: T2, recombinant human BAFF; remark: listed apart in the source
recombinant human BAFF [7] = target: T2, recombinant human BAFF; remark: listed apart in the source
recombinant human APRIL [8] = target: T1, recombinant human APRIL; remark: listed apart in the source
recombinant human BAFF [9] = target: T2, recombinant human BAFF; remark: listed apart in the source
recombinant human APRIL [10] = target: T1, recombinant human APRIL; remark: listed apart in the source
recombinant mouse APRIL = target: T3, recombinant mouse APRIL (mouse, UniProt Q9D777 96-241, limits assumed)
T3 sequence (looked up): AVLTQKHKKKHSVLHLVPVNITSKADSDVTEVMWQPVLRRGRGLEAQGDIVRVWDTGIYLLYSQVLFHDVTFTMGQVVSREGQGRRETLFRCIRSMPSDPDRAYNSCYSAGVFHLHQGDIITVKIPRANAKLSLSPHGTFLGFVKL

recombinant mouse BAFF = recombinant mouse BAFF (mouse, UniProt Q9WU72 127-309)
Sequence of recombinant mouse BAFF (Q9WU72 127-309 limits assumed): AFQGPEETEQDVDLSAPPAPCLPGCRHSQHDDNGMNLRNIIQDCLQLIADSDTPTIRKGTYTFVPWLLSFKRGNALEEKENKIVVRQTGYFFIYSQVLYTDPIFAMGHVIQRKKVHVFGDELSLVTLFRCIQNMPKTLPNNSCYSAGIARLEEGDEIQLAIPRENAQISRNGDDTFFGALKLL

B1: 26 TACI CRD2-Fc (Fc fusion)
chain: SLSCRKEQGEYYDHLLRDCISCASICGQHPKQCADFCENKLRSGSGGGGSEPKSSDKTHTCPPCPAPEAEGAPSVFLFPPKPKDTLMISRTPEVTCVVVDVSHEDPEVKFNWYVDGVEVHNAKTKPREEQYNSTYRVVSVLTVLHQDWLNGKEYKCKVSNKALPAPIEKTISKAKGQPREPQVYTLPPSRDELTKNQVSLTCLVKGFYPSDIAVEWESNGQPENNYKTTPPVLDSDGSFFLYSKLTVDKSRWQQGNVFSCSVMHEALHNHYTQKSLSLSPG
Recombinant human APRIL [1]
  IC50 (nM) APRIL: 179 nM
  IC50 APRIL (Δ TACI 30-110-Fc): 0.05 fold of TACI 30-110-Fc
Recombinant human BAFF [2]
  IC50 (nM) BAFF: 1220 nM
  IC50 BAFF (Δ TACI 30-110-Fc): 0.21 fold of TACI 30-110-Fc
Recombinant human APRIL [3]
  IC50 (nM) APRIL: 214 nM
  IC50 APRIL (Δ TACI 30-110): 0.05 fold of TACI 30-110
Recombinant human BAFF [4]
  IC50 (nM) BAFF: 1270 nM
  IC50 BAFF (Δ TACI 30-110): 0.28 fold of TACI 30-110
Recombinant human APRIL [5]
  APRIL IC50 (pM): 9210 pM
  APRIL IC50 (ΔWT): 0.75 fold of WT TACI (68-110)-Fc
Recombinant human BAFF [6]
  BAFF IC50 (pM): 1550 pM
  BAFF IC50 (ΔWT): 0.84 fold of WT TACI (68-110)-Fc
Recombinant human BAFF [7]
  IC50 (read off the curve): blockade of human BAFF signalling via TACI (NF-κB luciferase reporter, Jurkat/NF-κB/TACI cells): ~0.6 nM
Recombinant human APRIL [8]
  IC50 (read off the curve): blockade of human APRIL signalling via TACI (NF-κB luciferase reporter, Jurkat/NF-κB/TACI cells): ~0.6 nM
Recombinant human BAFF [9]
  IC50 (read off the curve): blockade of human BAFF signalling via TACI (NF-κB luciferase reporter, Jurkat/NF-κB/TACI cells): ~2 nM

B2: 13 TACI CRD2-Fc (Fc fusion)
chain: SLSCRKEQGKFYDHLLRDCISCASICGQHPKQCAYFCENKLRSGSGGGGSEPKSSDKTHTCPPCPAPEAEGAPSVFLFPPKPKDTLMISRTPEVTCVVVDVSHEDPEVKFNWYVDGVEVHNAKTKPREEQYNSTYRVVSVLTVLHQDWLNGKEYKCKVSNKALPAPIEKTISKAKGQPREPQVYTLPPSRDELTKNQVSLTCLVKGFYPSDIAVEWESNGQPENNYKTTPPVLDSDGSFFLYSKLTVDKSRWQQGNVFSCSVMHEALHNHYTQKSLSLSPG
Recombinant human APRIL [1]
  IC50 (nM) APRIL: 369 nM
  IC50 APRIL (Δ TACI 30-110-Fc): 0.1 fold of TACI 30-110-Fc
Recombinant human BAFF [2]
  IC50 (nM) BAFF: 1330 nM
  IC50 BAFF (Δ TACI 30-110-Fc): 0.23 fold of TACI 30-110-Fc
Recombinant human APRIL [5]
  APRIL IC50 (pM): 12300 pM
  APRIL IC50 (ΔWT): 1 fold of WT TACI (68-110)-Fc
Recombinant human BAFF [6]
  BAFF IC50 (pM): 1850 pM
  BAFF IC50 (ΔWT): 1 fold of WT TACI (68-110)-Fc
Recombinant human APRIL [10]
  IC50 (read off the curve): blockade of human APRIL signalling via TACI (NF-κB luciferase reporter, Jurkat/NF-κB/TACI cells): ~5 nM
Recombinant human BAFF [7]
  IC50 (read off the curve): blockade of human BAFF signalling via TACI (NF-κB luciferase reporter, Jurkat/NF-κB/TACI cells): ~2 nM
Recombinant human BAFF [9]
  IC50 (read off the curve): blockade of human BAFF signalling via TACI (NF-κB luciferase reporter, Jurkat/NF-κB/TACI cells): ~3 nM
Recombinant mouse APRIL
  IC50 (read off the curve): blockade of mouse APRIL signalling via TACI (NF-κB luciferase reporter, Jurkat/NF-κB/TACI cells): ~0.7 nM
Recombinant mouse BAFF
  IC50 (read off the curve): blockade of mouse BAFF signalling via TACI (NF-κB luciferase reporter, Jurkat/NF-κB/TACI cells): ~5 nM

B3: TACI 13-118, with K77E/F78Y/Y102D, Fc fusion (Fc fusion)
chain: SRVDQEERFPQGLWTGVAMRSCPEEQYWDPLLGTCMSCKTICNHQSQRTCAAFCRSLSCRKEQGEYYDHLLRDCISCASICGQHPKQCADFCENKLRSPVNLPPELEPKSSDKTHTCPPCPAPEAEGAPSVFLFPPKPKDTLMISRTPEVTCVVVDVSHEDPEVKFNWYVDGVEVHNAKTKPREEQYNSTYRVVSVLTVLHQDWLNGKEYKCKVSNKALPAPIEKTISKAKGQPREPQVYTLPPSRDELTKNQVSLTCLVKGFYPSDIAVEWESNGQPENNYKTTPPVLDSDGSFFLYSKLTVDKSRWQQGNVFSCSVMHEALHNHYTQKSLSLSPG
Recombinant human APRIL [3]
  IC50 (nM) APRIL: 848 nM
  IC50 APRIL (Δ TACI 30-110): 0.2 fold of TACI 30-110
Recombinant human BAFF [4]
  IC50 (nM) BAFF: 2050 nM
  IC50 BAFF (Δ TACI 30-110): 0.46 fold of TACI 30-110
Recombinant human APRIL [5]
  APRIL IC50 (pM): 13200 pM
  APRIL IC50 (ΔWT): 1.07 fold of WT TACI (68-110)-Fc
Recombinant human BAFF [6]
  BAFF IC50 (pM): 1990 pM
  BAFF IC50 (ΔWT): 1.07 fold of WT TACI (68-110)-Fc

B4: 7 TACI CRD1/CRD2-Fc (Fc fusion)
variant TACI domain - linker - Fc fusion chain: VAMRSCPEEQYWDPLLGTCMSCKTICNHQSQRTCAAFCRSLSCRKEQGKFYDHLLRDCISCASICGQHPKQCDYFCENKLRSGSGGGGSEPKSSDKTHTCPPCPAPEAEGAPSVFLFPPKPKDTLMISRTPEVTCVVVDVSHEDPEVKFNWYVDGVEVHNAKTKPREEQYNSTYRVVSVLTVLHQDWLNGKEYKCKVSNKALPAPIEKTISKAKGQPREPQVYTLPPSRDELTKNQVSLTCLVKGFYPSDIAVEWESNGQPENNYKTTPPVLDSDGSFFLYSKLTVDKSRWQQGNVFSCSVMHEALHNHYTQKSLSLSPG
Recombinant human APRIL [10]
  IC50 (read off the curve): blockade of human APRIL signalling via TACI (NF-κB luciferase reporter, Jurkat/NF-κB/TACI cells): ~3 nM
Recombinant human BAFF [7]
  IC50 (read off the curve): blockade of human BAFF signalling via TACI (NF-κB luciferase reporter, Jurkat/NF-κB/TACI cells): ~2 nM
